Key:
[1] = test system: mouse adult neural stem cells; assay: Intracellular ATP assay, adult mouse NSC, non-adherent culture; type: cell-based; conditions: varying concentrations, non-adherent conditions, 3 days, relative to control, dose-dependent
Experimental: The anterior lateral wall of the lateral ventricle of 5-6 week old mice was enzymatically dissociated in 0.8 mg/ml hyaluronidase and 0.5 mg/ml trypsin in DMEM containing 4.5 mg/ml glucose and 80 units/ml DNase at 37° C. for 20 min. The cells were gently triturated and mixed with three volumes of Neurosphere medium (DMEM/F12, B27 supplement, 12.5 mM HEPES pH7.4) containing 20 ng/ml EGF (unless otherwise stated), 100 units/ml penicillin and 100μg/ml streptomycin. After passing through a 70 μm strainer, the cells were pelleted at 160×g for 5 min. The supernatant was subsequently removed and the cells resuspended in Neurosphere medium supplemented as above, plated out in culture dishes and incubated at 37° C. Neurospheres were ready to be split approximately 7 days after plating.
To split neurosphere cultures, neurospheres were collected by centrifugation at 160×g for 5 min. […]
Mouse neurospheres, cultured as described above, from passage 2, were seeded in DMEM/F12 supplemented with B27 into a 96-well plate as single cells (10000 cells/well) to the substances to be measured were added at the concentrations indicated. After 3 days incubation, intracellular ATP was measured using the ATP-SL kit from BioThema, Sweden, according to the manufacturer's instructions. […]

[2] = target: T1, ADCYAP1R1 (Homo sapiens, UniProt P41586); conditions: unlike PACAP, which binds ADCYAP1R1 and VIPR1 & 2; Moro and Lerner 1997; cited from earlier work
T1 sequence (P41586 21-468): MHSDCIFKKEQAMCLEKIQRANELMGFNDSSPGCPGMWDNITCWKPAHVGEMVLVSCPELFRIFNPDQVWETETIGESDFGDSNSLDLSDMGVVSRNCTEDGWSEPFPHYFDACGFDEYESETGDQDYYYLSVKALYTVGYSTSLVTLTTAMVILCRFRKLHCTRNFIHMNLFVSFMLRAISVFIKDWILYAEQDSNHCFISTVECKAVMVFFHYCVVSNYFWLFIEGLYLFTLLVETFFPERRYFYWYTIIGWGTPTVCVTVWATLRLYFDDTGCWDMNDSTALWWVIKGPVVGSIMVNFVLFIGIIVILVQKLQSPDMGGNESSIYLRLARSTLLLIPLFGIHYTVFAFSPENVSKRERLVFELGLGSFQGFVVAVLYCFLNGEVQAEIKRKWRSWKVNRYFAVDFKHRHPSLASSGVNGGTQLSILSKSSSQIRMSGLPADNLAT

B1: Maxadilan: 63 amino acid peptide from salivary gland extracts of the sand fly; specific ADCYAP1R1 agonist (SEQ ID NO: 13) (peptide, listed as Mus musculus)
chain: CDATCQFRKAIEDCRKKAHHSDVLQTSVQTTATFTSMDTSQLPGSGVFKECMKEKAKEFKAGK
intracellular ATP levels, and hence cell number [1]: statistically significant increase in intracellular ATP levels | binding specificity [2]: binds specifically to only ADCYAP1R1

Source: US20040038888A1 (priority 2002, published 2004)
